Data reported in publication PMC4911367.

B1: wild-type (WT) human cardiac (ventricular/slow-twitch skeletal) myosin regulatory light chain (natural protein)
chain: MAPKKAKKRAGGANSNVFSMFEQTQIQEFKEAFTIMDQNRDGFIDKNDLRDTFAALGRVNVKNEEIDEMIKEAPGPINFTVFLTMFGEKLKGADPEETILNAFKVFDPEGKGVLKADYVREMLTTQAERFSKEEVDQMFAAFPPDVTGNLDYKNLVHIITHGEEKD

Legend:
[1] = target: RLC-depleted porcine cardiac (PC) myosin (porcine) (UniProt P79293); experiment: co-sedimentation; ~2.8 uM RLC-depleted PC myosin titrated with 0.1-14 uM human WT or IVS6-1 RLC (molar ratio 0.1-5.0) in 0.4 M KCl, 50 mM MOPS pH 7.0, 2 mM MgCl2, 1 mM DTT, with BSA, 30 min room temperature; myosin precipitated with 13 vol ice-cold water, pellet on SDS-PAGE, RLC/ELC band ratio; apparent Kd
[2] = target: RLC-depleted porcine cardiac (PC) myosin (porcine) (UniProt P79293); experiment: reconstitution of RLC-depleted skinned muscle strips, SDS-PAGE; skinned porcine papillary muscle strips depleted of RLC with CDTA/Triton X-100, incubated with 40 uM RLC-WT or IVS6-1 and 2 mM DTT in pCa 8 solution, then RLC and TnC; washed, SDS-PAGE
[3] = target: pyrene labeled rabbit skeletal F-actin (rabbit) (UniProt P68135); experiment: other fluorescence titration; 0.5 uM pyrene labeled F-actin titrated with myosin in 0.05 uM increments to ~2 fold molar excess, rigor conditions; excitation 340 nm, emission 407 nm; quadratic fit; apparent Kd and stoichiometry n
[4] = target: pyrene labeled rabbit skeletal F-actin (rabbit) (UniProt P68135); experiment: stopped-flow pyrene fluorescence; 0.25 uM myosin with 0.25 uM pyrene labeled F-actin (0.25 uM phalloidin) in rigor buffer 0.4 M KCl, 1 mM DTT, 10 mM MOPS pH 7.0, mixed 1:1 with 10-150 uM MgATP; MgATP-induced dissociation, single exponential fit
[5] = target: pyrene labeled rabbit skeletal F-actin (rabbit) (UniProt P68135)

| Molecule | Kd [1] | percent fiber reconstitution [2] | Kd [3] | stoichiometry N [3] | k1, MgATP-induced actin-myosin dissociation rate at 10 μM MgATP [4] | k1, MgATP-induced actin-myosin dissociation rate at 25 μM MgATP [4] | k1, MgATP-induced actin-myosin dissociation rate at 40 μM MgATP [4] | k1, MgATP-induced actin-myosin dissociation rate at 60 μM MgATP [4] | k1, MgATP-induced actin-myosin dissociation rate at 80 μM MgATP [4] | k1, MgATP-induced actin-myosin dissociation rate at 125 μM MgATP [4] | k1, MgATP-induced actin-myosin dissociation rate at 150 μM MgATP [4] | Km (actin) of actin-activated myosin ATPase activity [5] | Vmax of actin-activated myosin ATPase activity (F-actin 0.1-25 uM, ~1.9 uM myosin, 30°C) [5] |
| --- | --- | --- | --- | --- | --- | --- | --- | --- | --- | --- | --- | --- | --- |
| human cardiac RLC IVS6-1 (c403-1G>C) splice site mutant protein (from UniProt P10916 1-134) (natural protein) | 4410 nM | 100% | – | – | – | – | – | – | – | – | – | – | – |
| native porcine cardiac (PC) myosin (from UniProt P79293 1-1935) (complex) | – | – | 2.9 nM | 0.47 | 6.2 s⁻¹ | 15.8 s⁻¹ | 24.5 s⁻¹ | 33.4 s⁻¹ | 47.2 s⁻¹ | 65.9 s⁻¹ | 86.8 s⁻¹ | 1.93 µM | 0.24 s⁻¹ |
| porcine cardiac myosin reconstituted with human cardiac RLC IVS6-1 (from UniProt P79293 1-1935; P10916 1-134) (complex) | – | – | 16.7 nM | 0.59 | 5.5 s⁻¹ | 14.4 s⁻¹ | 21 s⁻¹ | 30.5 s⁻¹ | 41.4 s⁻¹ | 57.5 s⁻¹ | 67.8 s⁻¹ | 3.33 µM | 0.15 s⁻¹ |
| porcine cardiac myosin reconstituted with human cardiac RLC WT (from UniProt P79293 1-1935; P10916 1-166) (complex) | – | – | 4.6 nM | 0.51 | 7.4 s⁻¹ | 15.6 s⁻¹ | 19.9 s⁻¹ | 36 s⁻¹ | 50.4 s⁻¹ | 70.4 s⁻¹ | 88.7 s⁻¹ | 3.67 µM | 0.25 s⁻¹ |
| B1 | 1420 nM | 100% | – | – | – | – | – | – | – | – | – | – | – |
